Assay results published in US20180030119A1.

Key:
[1] = target: F protein of RSV reference strain RSV-A Long (ATCC VR-26), on virus (RSV-A Long (ATCC VR-26)) (UniProt P12568); assay: cell-based or functional assay
[2] = target: F protein of RSV reference strain RSV-B (ATCC VR 1580), on virus (RSV-B (ATCC VR 1580)) (UniProt P13843); assay: cell-based or functional assay
[3] = target: F protein on intact RSV particles (Example 11, strain not stated) (RSV, strain not stated); assay: competition ELISA: RSV particles pre-incubated with inhibiting mAb at 20 ug/mL, then added to plates coated with AR201 (competitor)
[4] = target: F protein on intact RSV particles (Example 11, strain not stated) (RSV, strain not stated); assay: competition ELISA: RSV particles pre-incubated with inhibiting mAb at 20 ug/mL, then added to plates coated with palivizumab (competitor, self)
[5] = target: F protein on intact RSV particles (Example 11, strain not stated) (RSV, strain not stated); assay: competition ELISA: RSV particles pre-incubated with control IgG at 20 ug/mL, plates coated with AR201; this is the reference set to 100 %
[6] = target: F protein on intact RSV particles (Example 11, strain not stated) (RSV, strain not stated); assay: competition ELISA: RSV particles pre-incubated with control IgG at 20 ug/mL, plates coated with palivizumab; this is the reference set to 100 %

Chain of F protein of RSV reference strain RSV-B (ATCC VR 1580), on virus (RSV-B (ATCC VR 1580)) (P13843 26-574): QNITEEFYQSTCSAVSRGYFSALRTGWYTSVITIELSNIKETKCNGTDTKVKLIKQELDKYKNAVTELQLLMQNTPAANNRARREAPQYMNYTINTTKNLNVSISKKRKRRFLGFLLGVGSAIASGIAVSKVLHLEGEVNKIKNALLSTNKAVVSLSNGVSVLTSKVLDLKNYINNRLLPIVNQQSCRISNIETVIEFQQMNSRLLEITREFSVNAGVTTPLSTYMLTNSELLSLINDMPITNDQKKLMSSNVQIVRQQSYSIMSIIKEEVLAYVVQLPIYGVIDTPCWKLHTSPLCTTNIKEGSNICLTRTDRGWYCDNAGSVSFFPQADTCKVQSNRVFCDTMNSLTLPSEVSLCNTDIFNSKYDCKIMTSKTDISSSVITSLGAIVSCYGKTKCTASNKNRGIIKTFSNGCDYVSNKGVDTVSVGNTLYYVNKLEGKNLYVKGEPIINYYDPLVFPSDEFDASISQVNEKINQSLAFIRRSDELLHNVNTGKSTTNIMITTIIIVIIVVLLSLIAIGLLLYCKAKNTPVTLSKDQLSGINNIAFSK
Chain of F protein of RSV reference strain RSV-A Long (ATCC VR-26), on virus (RSV-A Long (ATCC VR-26)) (P12568 26-574): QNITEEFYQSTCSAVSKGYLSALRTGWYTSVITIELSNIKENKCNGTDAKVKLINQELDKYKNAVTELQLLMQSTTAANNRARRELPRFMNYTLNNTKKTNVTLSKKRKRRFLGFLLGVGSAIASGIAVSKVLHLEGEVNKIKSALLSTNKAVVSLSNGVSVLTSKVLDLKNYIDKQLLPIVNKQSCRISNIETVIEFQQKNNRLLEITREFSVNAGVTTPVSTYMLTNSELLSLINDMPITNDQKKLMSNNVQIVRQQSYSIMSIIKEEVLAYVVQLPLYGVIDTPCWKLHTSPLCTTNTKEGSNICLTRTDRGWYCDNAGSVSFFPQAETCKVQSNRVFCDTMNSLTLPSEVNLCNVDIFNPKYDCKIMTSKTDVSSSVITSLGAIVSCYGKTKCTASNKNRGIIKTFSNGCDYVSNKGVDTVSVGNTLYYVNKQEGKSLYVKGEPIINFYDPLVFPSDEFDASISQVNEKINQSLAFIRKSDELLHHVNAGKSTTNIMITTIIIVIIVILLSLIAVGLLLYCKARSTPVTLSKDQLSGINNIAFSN

Row | Substance | Estimated half-maximal effective antibody concentration (ng/mL), plaque neutralisation on Vero cells [1] [ng/mL] | Estimated half-maximal effective antibody concentration (ng/mL), plaque neutralisation on Vero cells [2] [ng/mL] | binding of RSV to the coated mAb, % of binding with control IgG [3] [%] | binding of RSV to the coated mAb, % of binding with control IgG [4] [%] | binding of RSV to the coated mAb, % of binding with control IgG [5] [%] | binding of RSV to the coated mAb, % of binding with control IgG [6] [%]
1 | palivizumab (antibody) | 100 | 200 | 29.2 | 35.3 |  | 
2 | unrelated fully human monoclonal IgG1 antibody (control) | > 1000 | > 1000 |  |  | 100 | 100
